± gives the uncertainty stated by the source.
B1: Transcription factor SOX-4, residues 60 to 127; numbered along this chain, Q06945 (parent)
chain: KRPMNAFMVWSQIERRKIMEQSPDMHNAEISKRLGKRWKLLKDSDKIPFIREAERLRLKHMADYPDYK

Variants of: B1
Experiment: abundance fitness (aPCA) (normalised: wild type 0, dead -1); higher = more abundant; growth selection in yeast, the domain comes from the species named
Conditions: Homo sapiens

Abundance fitness: each site, then its substitutions
I47: S -0.319 ± 0.041; P -0.796 ± 0.4; W -0.251 ± 0.045; Q -0.006 ± 0.074; C -0.546 ± 0.062; L 0.078 ± 0.038; K -0.112 ± 0.074; T -0.178 ± 0.046; F -0.241 ± 0.051; A 0.031 ± 0.063; N -0.322 ± 0.05; Y -0.224 ± 0.054
P48: M -0.168 ± 0.069; W -0.493 ± 0.069; E -0.189 ± 0.049; G -0.51 ± 0.042; S -0.453 ± 0.057; K -0.482 ± 0.1; C -0.504 ± 0.084; V -0.315 ± 0.044; D -0.469 ± 0.077; R -0.4 ± 0.055; H -0.31 ± 0.048; Q -0.286 ± 0.2; T -0.346 ± 0.071; I -0.089 ± 0.08; F -0.351 ± 0.076; Y -0.566 ± 0.1
F49: Y -0.044 ± 0.11; L -0.598 ± 0.065; H -0.131 ± 0.31; G -0.702 ± 0.092; I -0.82 ± 0.26; P -1.08 ± 0.23; V -0.763 ± 0.094; Q -0.972 ± 0.15; A -0.533 ± 0.084; S -0.763 ± 0.098; T -0.623 ± 0.13; K -0.879 ± 0.17; R -1.04 ± 0.11; M -1.08 ± 0.31
A53: C -0.824 ± 0.27; E -0.52 ± 0.084; G -0.684 ± 0.08; L -0.856 ± 0.17; N -0.275 ± 0.24; R -0.924 ± 0.087; W -1.19 ± 0.19; Q -0.898 ± 0.17; M -0.585 ± 0.088; P -1.19 ± 0.3; I -0.662 ± 0.23; H -0.42 ± 0.17; V -0.787 ± 0.12; F -0.841 ± 0.27; Y -0.347 ± 0.12; S -0.431 ± 0.055
K42: D -0.274 ± 0.16; G -0.264 ± 0.075; M -0.465 ± 0.1; C -0.28 ± 0.2; A -0.066 ± 0.079; V -0.372 ± 0.074; L -0.368 ± 0.055; S 0.13 ± 0.053; H -0.487 ± 0.28; Q -0.104 ± 0.063; I -0.609 ± 0.17; N -0.212 ± 0.17; W -0.786 ± 0.13
K59: N -0.118 ± 0.061; H -0.108 ± 0.073; L 0.02 ± 0.044; W -0.369 ± 0.056; M -0.048 ± 0.055; D -0.13 ± 0.054; Y -0.277 ± 0.053; R -0.126 ± 0.035; G -0.045 ± 0.038; F -0.321 ± 0.054; V -0.086 ± 0.038; A -0.04 ± 0.064; S -0.024 ± 0.039; E -0.017 ± 0.046; T -0.162 ± 0.058; P -0.178 ± 0.089
I50: G -0.309 ± 0.07; T -0.337 ± 0.086; W -0.633 ± 0.15; Q -0.021 ± 0.1; K -0.362 ± 0.14; S -0.322 ± 0.086; A -0.186 ± 0.1; C -0.51 ± 0.2; R -0.2 ± 0.1; E 0.009 ± 0.081; Y 0.041 ± 0.28; N -0.284 ± 0.19; L -0.194 ± 0.082; F 0.003 ± 0.12
L58: A 0.013 ± 0.05; F -0.084 ± 0.039; V -0.046 ± 0.039; H -0.018 ± 0.062; N -0.028 ± 0.046; Q 0.046 ± 0.12; G 0.015 ± 0.034; E 0.091 ± 0.058; C -0.247 ± 0.058; Y -0.286 ± 0.043; M -0.043 ± 0.065; D -0.039 ± 0.047; S -0.011 ± 0.034; R 0.007 ± 0.04; K -0.07 ± 0.046; I -0.132 ± 0.047; T -0.087 ± 0.058; W -0.247 ± 0.055
R57: S -0.309 ± 0.08; C -0.048 ± 0.13; D -0.372 ± 0.11; V -0.413 ± 0.072; P -0.236 ± 0.093; A 0.06 ± 0.062; W -0.32 ± 0.11; H -0.815 ± 0.41; F 0.056 ± 0.22; T -0.19 ± 0.17; M -0.135 ± 0.086; G -0.247 ± 0.064; L -0.328 ± 0.063; K -0.375 ± 0.16; Q -0.206 ± 0.1; E -0.111 ± 0.066
L41: K -0.653 ± 0.11; P -0.728 ± 0.21; G -0.941 ± 0.16; M 0.071 ± 0.065; Y -0.807 ± 0.17; W -0.946 ± 0.14; F -0.684 ± 0.2; Q -0.889 ± 0.19; A -0.875 ± 0.12; V -0.529 ± 0.067; E -0.849 ± 0.16; T -0.788 ± 0.12; S -0.779 ± 0.1
R55: E -0.333 ± 0.076; C -0.292 ± 0.056; H -0.284 ± 0.073; L -0.326 ± 0.046; Y -0.474 ± 0.1; N -0.22 ± 0.07; G -0.337 ± 0.035; T -0.181 ± 0.067; I -0.22 ± 0.06; S -0.309 ± 0.045; F -0.38 ± 0.059; Q -0.188 ± 0.08; P -0.5 ± 0.09; A -0.103 ± 0.053; K -0.08 ± 0.072; M -0.2 ± 0.091; D -0.136 ± 0.07; V -0.248 ± 0.039; W -0.44 ± 0.047
